# From US20150299285A1
# Bridges are numbered along the chain shown (N, C = ends). Primed or numbered codes have the meaning given here. Where no end group is shown, it is not given here. [ ]: non-standard residue; d: D form. PEG4′ = non-peptide PEG4 spacer in the linking moiety; PEG8″ = non-peptide PEG8 spacer in the linking moiety
# B1: MIU-35: B^1(H5, H10, Y16, L17)25-C^1-A^1 (H8, N18, N21) (ligand)
# chain: GPEHLCGAHLVDALYLVCGDRGFYGYGSSSRRAPQTGIVDECCHRSCDLRRLENYCN
# B2: MIU-68: B0, B22-PEG10K di-PEGylated B^1(H5,Y16,L17, K22)25-C^1(K8)-A^1(N18,21) (ligand)
# chain: {PEG 10 kDa}-GPEHLCGAELVDALYLVCGDK(PEG 10 kDa)GFYGYGSSSRKAPQTGIVDECCFRSCDLRRLENYCN
# modifications: disulfide 18-56, 42-47, 6-43
# B3: MIU-58: B1-PEG20K-B1- Dimer, P05019 49-110 (ligand)
# chain: {PEG 20 kDa}-GPEHLCGAELVDALYLVCGDRGFYGYGSSSRRAPQTGIVDECCFRSCDLRRLENYCN
# modifications: disulfide 18-56, 42-47, 6-43; also: dimer: two chains linked head to head via 20 kDa PEG
# B4: MIU-67: B0, C8-PEG10K di-PEGylated B^1(H5,Y16,L17)25-C^1(K8)-A^1(N18,21) (ligand)
# chain: {PEG 10 kDa}-GPEHLCGAELVDALYLVCGDRGFYGYGSSSRK(PEG 10 kDa)APQTGIVDECCFRSCDLRRLENYCN
# modifications: disulfide 18-56, 42-47, 6-43
# B5: MIU-69: B0, A14-PEG10K di-PEGylated B^1(H5,Y16,L17)25-C^1(K8)-A^1(K14, N18,21) (ligand)
# chain: {PEG 10 kDa}-GPEHLCGAELVDALYLVCGDRGFYGYGSSSRKAPQTGIVDECCFRSCDLK(PEG 10 kDa)RLENYCN
# modifications: disulfide 18-56, 42-47, 6-43
# B6: MIU-57: B1-PEG20K B^1(H5,Y16,L17)25-C^1-A^1(N18,21), P05019 49-110 (ligand)
# chain: {PEG 20 kDa}-GPEHLCGAELVDALYLVCGDRGFYGYGSSSRRAPQTGIVDECCFRSCDLRRLENYCN
# modifications: disulfide 18-56, 42-47, 6-43
# B7: DP19LysC (ligand)
# chain: B1 chain
# Target: insulin receptor subtype A (human), P06213
# Assay: cell-based or functional assay
row,Binder,% Insulin Activity (in vitro; assay not stated) [%]
1,B1,61.4
2,"GPEHLCGAELVDALYLVCGDRGFY[PEG8″]K(PEG 20 kDa)[PEG4′]GIVDECCFRSCDLRRLENYCN (ligand, disulfide 18-47, 33-38, 6-34) [MIU-56: C8-PEG20K B^1(H5, Y16, L17)25-PEG8-K-PEG4-A^1(N18, N21)]",14.8
3,B2,0.4
4,B3,19.7
5,B4,0.2
6,B5,1
7,B6,3.1

# Target: insulin receptor subtype B (human), P06213
# Assay: cell-based or functional assay
row,Binder,% Insulin Activity (in vitro; assay not stated) [%]
1,B1,17.4
2,B2,0.1
3,B3,5.8
4,B4,0.1
5,B5,0.5
6,B6,1.1

# Target: insulin receptor subtype A (human) (UniProt P06213)
# Assay: cell-based or functional assay
row,Binder,"EC50, Receptor Phosphorylation [nM]"
1,B7,0.3

# Target: human IGF-1 receptor (human) (UniProt P08069)
# Assay: cell-based or functional assay
row,Binder,"EC50, Receptor Phosphorylation [nM]"
1,B7,20.7

# Target: insulin receptor subtype B (human) (UniProt P06213)
# Assay: cell-based or functional assay
row,Binder,"EC50, Receptor Phosphorylation [nM]"
1,B7,1.2
